From patent US20160376353A1 (DECIMMUNE THERAPEUTICS, published 2016)
Ends that are not written are not given here.

T1: Biotin-labeled N2 peptide (also: biotin label, position not given here)
T1 construct: also called immobilized N2
T1 peptide: LMKNMDPLNDNV

T2: N2 peptide (non-muscle myosin neo-epitope N2 12mer sequence)
T2 construct: also called N2 12-mer peptide
T2 peptide: LMKNMDPLNDNV

B1: H3-21G6 / L2-21G6 (Table 2, constant region not stated) (antibody, V domains shown)
VH: QVQLVQSGAEVKKPGSSVKVSCKASGYTFTSYYMYWVRQAPGQGLEWIGGINPSNGGTNFNEKFKSKATITVDKSTSTAYMELSSLRSEDTAVYYCTRWGYDREWFAYWGQGTLVTVSS
VL: DIVMTQSPLSLPVTPGEPASISCRSSKSLLHSNGNTYLYWFLQKPGQSPQLLIYRMSNLASGVPDRFSGSGSGTDFTLKISRVEAEDVGVYYCMQHLEYPFTFGQGTKLEIKR
notes: human kappa light chain; also called H3/L2
B2: H3-21G6 / L3-21G6 (Table 2, constant region not stated) (antibody, V domains shown)
VH: QVQLVQSGAEVKKPGSSVKVSCKASGYTFTSYYMYWVRQAPGQGLEWIGGINPSNGGTNFNEKFKSKATITVDKSTSTAYMELSSLRSEDTAVYYCTRWGYDREWFAYWGQGTLVTVSS
VL: DIVMTQTPLSLSYTPGQPASISCRSSKSLLHSNGNTYLYWFLQKPGQSPQLLIYRMSNLASGVPDRFSGSGSGTDFTLKISRVEAEDVGVYYCMQHLEYPFTFGQGTKLEIKR
notes: human kappa light chain; also called H3/L3
B3: H4-21G6 / L2-21G6 (Table 3B, constant region not stated) (antibody, V domains shown)
VH: QVQLVQSGAEVKKPGASVKVSCKASGYTFTSYYMYWVRQAPGQGLEWMGGINPSNGGTNFNEKFKSRVTMTTDTSTSTAYMELRSLRSDDTAVYYCTRWGYDREWFAYWGQGTLVTVSS
VL: DIVMTQSPLSLPVTPGEPASISCRSSKSLLHSNGNTYLYWFLQKPGQSPQLLIYRMSNLASGVPDRFSGSGSGTDFTLKISRVEAEDVGVYYCMQHLEYPFTFGQGTKLEIKR
notes: human kappa light chain; also called H4/L2
B4: H2-21G6 / L1-21G6 (Table 2, constant region not stated) (antibody, V domains shown)
VH: QVQLVQSGAEVKKPGASVKVSCKASGYTFTSYYMYWVRQAPGQGLEWIGGINPSNGGTNFNEKFKSKATMTVDKSTSTAYMELRSLRSDDSAVYYCTRWGYDREWFAYWGQGTLVTVSS
VL: DIVMTQSPATLSVSPGERATISCRSSKSLLHSNGNTYLYWFQQKPGQPPKVLIYRMSNLASGVPARFSGSGSGTDFTLTISSVEPEDFATYYCMQHLEYPFTFGGGTKLEIKR
notes: human kappa light chain; also called H2/L1
B5: H2-21G6 / L2-21G6, wild type human IgG1 (antibody, V domains shown)
VH: QVQLVQSGAEVKKPGASVKVSCKASGYTFTSYYMYWVRQAPGQGLEWIGGINPSNGGTNFNEKFKSKATMTVDKSTSTAYMELRSLRSDDSAVYYCTRWGYDREWFAYWGQGTLVTVSS
VL: DIVMTQSPLSLPVTPGEPASISCRSSKSLLHSNGNTYLYWFLQKPGQSPQLLIYRMSNLASGVPDRFSGSGSGTDFTLKISRVEAEDVGVYYCMQHLEYPFTFGQGTKLEIKR
notes: also called H2/L2
B6: H1-21G6 / L2-21G6, wild type human IgG1 (antibody, V domains shown)
VH: QVQLVQSGAEVVKPGASVKLSCKASGYTFTSYYMYWVKQAPGQGLEWIGGINPSNGGTNFNEKFKSKATLTVDKSASTAYMELSSLRSEDTAVYYCTRWGYDREWFAYWGQGTLVTVSS
VL: DIVMTQSPLSLPVTPGEPASISCRSSKSLLHSNGNTYLYWFLQKPGQSPQLLIYRMSNLASGVPDRFSGSGSGTDFTLKISRVEAEDVGVYYCMQHLEYPFTFGQGTKLEIKR
notes: also called H1/L2
B7: H1-21G6 / L3-21G6, wild type human IgG1 (antibody, V domains shown)
VH: QVQLVQSGAEVVKPGASVKLSCKASGYTFTSYYMYWVKQAPGQGLEWIGGINPSNGGTNFNEKFKSKATLTVDKSASTAYMELSSLRSEDTAVYYCTRWGYDREWFAYWGQGTLVTVSS
VL: DIVMTQTPLSLSYTPGQPASISCRSSKSLLHSNGNTYLYWFLQKPGQSPQLLIYRMSNLASGVPDRFSGSGSGTDFTLKISRVEAEDVGVYYCMQHLEYPFTFGQGTKLEIKR
notes: also called H1/L3
B8: H2-21G6 / L3-21G6, human IgG1 N297Q (antibody, V domains shown)
VH: QVQLVQSGAEVKKPGASVKVSCKASGYTFTSYYMYWVRQAPGQGLEWIGGINPSNGGTNFNEKFKSKATMTVDKSTSTAYMELRSLRSDDSAVYYCTRWGYDREWFAYWGQGTLVTVSS
VL: DIVMTQTPLSLSYTPGQPASISCRSSKSLLHSNGNTYLYWFLQKPGQSPQLLIYRMSNLASGVPDRFSGSGSGTDFTLKISRVEAEDVGVYYCMQHLEYPFTFGQGTKLEIKR
notes: also called H2/L3 N297Q
B9: H2-21G6 / L3-21G6, wild type human IgG1 (antibody, V domains shown)
VH: QVQLVQSGAEVKKPGASVKVSCKASGYTFTSYYMYWVRQAPGQGLEWIGGINPSNGGTNFNEKFKSKATMTVDKSTSTAYMELRSLRSDDSAVYYCTRWGYDREWFAYWGQGTLVTVSS
VL: DIVMTQTPLSLSYTPGQPASISCRSSKSLLHSNGNTYLYWFLQKPGQSPQLLIYRMSNLASGVPDRFSGSGSGTDFTLKISRVEAEDVGVYYCMQHLEYPFTFGQGTKLEIKR
notes: also called H2/L3
B10: H3-21G6 / L2-21G6, wild type human IgG1 (antibody, V domains shown)
VH: QVQLVQSGAEVKKPGSSVKVSCKASGYTFTSYYMYWVRQAPGQGLEWIGGINPSNGGTNFNEKFKSKATITVDKSTSTAYMELSSLRSEDTAVYYCTRWGYDREWFAYWGQGTLVTVSS
VL: DIVMTQSPLSLPVTPGEPASISCRSSKSLLHSNGNTYLYWFLQKPGQSPQLLIYRMSNLASGVPDRFSGSGSGTDFTLKISRVEAEDVGVYYCMQHLEYPFTFGQGTKLEIKR
notes: also called H3/L2
B11: H3-21G6 / L3-21G6, wild type human IgG1 (antibody, V domains shown)
VH: QVQLVQSGAEVKKPGSSVKVSCKASGYTFTSYYMYWVRQAPGQGLEWIGGINPSNGGTNFNEKFKSKATITVDKSTSTAYMELSSLRSEDTAVYYCTRWGYDREWFAYWGQGTLVTVSS
VL: DIVMTQTPLSLSYTPGQPASISCRSSKSLLHSNGNTYLYWFLQKPGQSPQLLIYRMSNLASGVPDRFSGSGSGTDFTLKISRVEAEDVGVYYCMQHLEYPFTFGQGTKLEIKR
notes: also called H3/L3
B12: H3-21G6 / L1-21G6, wild type human IgG1 (antibody, V domains shown)
VH: QVQLVQSGAEVKKPGSSVKVSCKASGYTFTSYYMYWVRQAPGQGLEWIGGINPSNGGTNFNEKFKSKATITVDKSTSTAYMELSSLRSEDTAVYYCTRWGYDREWFAYWGQGTLVTVSS
VL: DIVMTQSPATLSVSPGERATISCRSSKSLLHSNGNTYLYWFQQKPGQPPKVLIYRMSNLASGVPARFSGSGSGTDFTLTISSVEPEDFATYYCMQHLEYPFTFGGGTKLEIKR
notes: also called H3/L1
B13: H1-21G6 / L1-21G6, human IgG1 N297Q (antibody, V domains shown)
VH: QVQLVQSGAEVVKPGASVKLSCKASGYTFTSYYMYWVKQAPGQGLEWIGGINPSNGGTNFNEKFKSKATLTVDKSASTAYMELSSLRSEDTAVYYCTRWGYDREWFAYWGQGTLVTVSS
VL: DIVMTQSPATLSVSPGERATISCRSSKSLLHSNGNTYLYWFQQKPGQPPKVLIYRMSNLASGVPARFSGSGSGTDFTLTISSVEPEDFATYYCMQHLEYPFTFGGGTKLEIKR
notes: also called H1/L1 N297Q
B14: H1-21G6 / L1-21G6, wild type human IgG1 (antibody, V domains shown)
VH: QVQLVQSGAEVVKPGASVKLSCKASGYTFTSYYMYWVKQAPGQGLEWIGGINPSNGGTNFNEKFKSKATLTVDKSASTAYMELSSLRSEDTAVYYCTRWGYDREWFAYWGQGTLVTVSS
VL: DIVMTQSPATLSVSPGERATISCRSSKSLLHSNGNTYLYWFQQKPGQPPKVLIYRMSNLASGVPARFSGSGSGTDFTLTISSVEPEDFATYYCMQHLEYPFTFGGGTKLEIKR
notes: also called H1/L1
B15: H2-21G6 / L1-21G6, wild type human IgG1 (antibody, V domains shown)
VH: QVQLVQSGAEVKKPGASVKVSCKASGYTFTSYYMYWVRQAPGQGLEWIGGINPSNGGTNFNEKFKSKATMTVDKSTSTAYMELRSLRSDDSAVYYCTRWGYDREWFAYWGQGTLVTVSS
VL: DIVMTQSPATLSVSPGERATISCRSSKSLLHSNGNTYLYWFQQKPGQPPKVLIYRMSNLASGVPARFSGSGSGTDFTLTISSVEPEDFATYYCMQHLEYPFTFGGGTKLEIKR
notes: also called H2/L1
B16: Chimeric 21G6, human heavy chain constant region IgG1 (wild type) (antibody, V domains shown)
VH: QVQLQQPGAELVKPGASVKLSCKASGYTFTSYYMYWVKQRPGQGLEWIGGINPSNGGTNFNEKFKSKATLTVDKSSSTAYMQLSSLTSEDSAVYYCTRWGYDREWFAYWGQGTLVTVSA
VL: DIVMTQAAPSVPVTPGESVSISCRSSKSLLHSNGNTYLYWFLQRPGQSPQVLIYRMSNLASGVPDRFSGSGSGTAFTLRISRVEAEDVGVYYCMQHLEYPFTFGSGTKLEIKR
notes: also called CHIgG1 / Ch; ch21G6 IgG1
B17: H2-21G6 / L2-21G6, human IgG1 N297Q (antibody, V domains shown)
VH: QVQLVQSGAEVKKPGASVKVSCKASGYTFTSYYMYWVRQAPGQGLEWIGGINPSNGGTNFNEKFKSKATMTVDKSTSTAYMELRSLRSDDSAVYYCTRWGYDREWFAYWGQGTLVTVSS
VL: DIVMTQSPLSLPVTPGEPASISCRSSKSLLHSNGNTYLYWFLQKPGQSPQLLIYRMSNLASGVPDRFSGSGSGTDFTLKISRVEAEDVGVYYCMQHLEYPFTFGQGTKLEIKR
notes: also called H2/L2 N297Q
B18: H3-21G6 / L1-21G6, human IgG1 N297Q (antibody, V domains shown)
VH: QVQLVQSGAEVKKPGSSVKVSCKASGYTFTSYYMYWVRQAPGQGLEWIGGINPSNGGTNFNEKFKSKATITVDKSTSTAYMELSSLRSEDTAVYYCTRWGYDREWFAYWGQGTLVTVSS
VL: DIVMTQSPATLSVSPGERATISCRSSKSLLHSNGNTYLYWFQQKPGQPPKVLIYRMSNLASGVPARFSGSGSGTDFTLTISSVEPEDFATYYCMQHLEYPFTFGGGTKLEIKR
notes: also called H3/L1 N297Q

Target: T1, Biotin-labeled N2 peptide
Assay: SPR (BIACORE X100), biotin-N2 peptide on NeutrAvidin chip, antibody in solution; kd/ka (monovalent)
Description: (§1) The remaining sequences represent the germline sequences with the highest homology that encode productive antibody. All of the humanized sequences maintain the murine 21G6 CDR regions which are shown inside the boxes in FIG. 1. The humanized variable regions were cloned into a vector containing wild type human IgG1, human IgG1 containing a mutation at amino acid 297 (Asn 297 to Q297), human IgG4 containing a mutation at amino acid 228 (serine to proline) and human kappa light chain. Each antibody (heavy and light) combination was expressed by transient co-transfection in 293A cells (in the presence of low Ig serum). The antibody containing supernatants were collected and analyzed for binding to the N2 peptide by ELISA and BIACORE™ X100 system. All experiments were performed using a BIACORE™ X100 system. For antibody capture experiments, a CM5 chip was prepared by 10 ul/minute injection of EDC/NHS (N-ethyl-N′-(3-dimethylaminopropyl) carbodiimide (EDC), N-hydroxysuccinimide (NHS) for 7 minutes, followed by a 10 ul/minute injection of anti-human Fc (GE Lifesciences) at a concentration of 25 ug/ml in sodium acetate at pH 5 for 3 minutes. Ethanolamine-HCl was injected for 7 minutes at 10 ul/minute. The chimeric or humanized antibodies were captured onto flow cell 2 and N2 peptide at varying concentrations was flowed over flow cells 1 and 2 at a rate of 30 ul/minute with a contact time of 120 seconds and a dissociation period of 120 seconds. Complete removal of captured antibody was accomplished by regeneration with 3M MgCl2 for 30 seconds at a flow rate of 10 ul/minute. For peptide immobilized experiments, a CM5 chip was prepared by 10 ul/minute injection of EDC/NHS (N-ethyl-N′-(3-dimethylaminopropyl) carbodiimide (EDC), N-hydroxysuccinimide (NHS) for 7 minutes, followed by a 10 ul/minute injection of NEUTRAVIDIN® protein (ThermoFisher Pierce) at a concentration of 5 ug/ml in sodium acetate, pH 5 to an immobilization response of 100-200RU. Ethanolamine-HCl was injected for 7 minutes at 10 ul/minute. Biotin-labeled N2 peptide was captured on flow channel 2 with the goal of an experimental Rmax of about 50-100RU. Purified chimeric or humanized antibodies were flowed over both flow channels at a rate of 30 ul/min for a contact time of 120 seconds and allowed to dissociate for 600 seconds.

Binder | Kd [µM]
B1 | 0.64
B2 | 0.9
B3 | 0.1
B4 | 0.66

Target: T2, N2 peptide (non-muscle myosin …)
Assay: SPR (BIACORE X100), antibody captured by anti-human Fc, N2 peptide in solution
Description: as §1

Binder | Kd [µM]
B5 | 6.4 to 8.4
B6 | 17
B7 | 20.9
B8 | 8.8
B9 | 9.56
B10 | 11.5
B11 | 9.38
B12 | 7.9
B13 | 9
B14 | 6.6 to 7.7
B15 | 9.8 to 11
B16 | 6 to 7
B17 | 3.1 to 3.7
B18 | 20
